Reference: publication PMC3677924, “Biochemical and Functional Analysis of Drosophila-Sciara Chimeric Sex-Lethal Proteins”

T1: SX64 chimera (Drosophila melanogaster / Sciara …, UniProt P19339 1-292+=LE+Q86QM9:241-287, internal_change)
T1 sequence: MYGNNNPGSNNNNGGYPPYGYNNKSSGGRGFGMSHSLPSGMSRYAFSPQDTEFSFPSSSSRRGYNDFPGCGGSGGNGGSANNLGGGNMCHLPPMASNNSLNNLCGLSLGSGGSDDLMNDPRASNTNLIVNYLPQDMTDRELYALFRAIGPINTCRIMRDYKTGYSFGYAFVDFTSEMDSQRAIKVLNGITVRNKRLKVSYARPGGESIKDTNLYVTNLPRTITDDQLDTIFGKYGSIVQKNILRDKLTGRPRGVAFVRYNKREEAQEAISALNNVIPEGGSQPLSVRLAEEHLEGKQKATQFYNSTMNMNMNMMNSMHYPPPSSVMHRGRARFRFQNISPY

T2: SX17 chimera (Drosophila melanogaster / Sciara …, UniProt Q86QM9 1-71+=R+P19339:125-354, internal_change)
T2 sequence: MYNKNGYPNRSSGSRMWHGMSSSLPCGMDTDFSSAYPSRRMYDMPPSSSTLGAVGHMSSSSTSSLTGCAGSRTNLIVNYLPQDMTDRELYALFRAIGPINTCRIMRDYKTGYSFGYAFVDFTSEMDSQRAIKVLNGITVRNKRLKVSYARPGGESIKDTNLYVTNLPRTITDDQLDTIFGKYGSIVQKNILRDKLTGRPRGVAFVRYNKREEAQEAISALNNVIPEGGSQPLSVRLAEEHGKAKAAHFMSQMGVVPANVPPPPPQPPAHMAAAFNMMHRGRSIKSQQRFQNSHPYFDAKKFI

T3: SX28 chimera (Drosophila melanogaster / Sciara …, UniProt Q86QM9 1-240+=LE+P19339:293-354, internal_change)
T3 sequence: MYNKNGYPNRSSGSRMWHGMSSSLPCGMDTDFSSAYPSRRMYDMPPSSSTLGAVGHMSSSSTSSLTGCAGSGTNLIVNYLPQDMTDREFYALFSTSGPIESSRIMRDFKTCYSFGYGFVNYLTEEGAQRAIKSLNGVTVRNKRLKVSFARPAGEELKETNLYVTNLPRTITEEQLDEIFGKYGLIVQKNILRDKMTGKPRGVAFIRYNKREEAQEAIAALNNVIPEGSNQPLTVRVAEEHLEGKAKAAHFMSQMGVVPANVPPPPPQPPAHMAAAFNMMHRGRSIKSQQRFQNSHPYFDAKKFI

T4: SX35 chimera (Drosophila melanogaster / Sciara …, UniProt P19339 1-123+=R+Q86QM9:73-287, internal_change)
T4 sequence: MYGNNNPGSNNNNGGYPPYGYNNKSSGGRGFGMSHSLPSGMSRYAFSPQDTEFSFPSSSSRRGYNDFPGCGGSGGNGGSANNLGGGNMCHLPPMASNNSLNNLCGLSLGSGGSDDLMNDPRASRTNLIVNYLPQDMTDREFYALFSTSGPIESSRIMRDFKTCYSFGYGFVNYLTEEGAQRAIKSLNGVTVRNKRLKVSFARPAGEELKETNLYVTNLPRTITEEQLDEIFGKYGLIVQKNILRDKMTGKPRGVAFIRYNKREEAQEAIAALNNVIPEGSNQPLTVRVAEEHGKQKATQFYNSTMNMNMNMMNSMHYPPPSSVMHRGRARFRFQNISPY

B1: double poly(U) SXL site (ssRNA)
RNA: CAUGAUUAUUUUUUUUUAUUUUUUUUCGGUGA
B2: single poly(U) SXL site (ssRNA)
RNA: ACAUAUUUUUUUUCACAGC

How the values were obtained:
Conditions in all cases: protein: recombinant; tags: GST; label: fluorescein (RNA labelling mix)
SX64 chimera [1] = biological target: T1, SX64 chimera; experiment: EMSA; Hill n=1; error 95% CI; 20 mM Hepes pH 8.0, 0.1 M KCl, 0.5 mM EDTA, 1 mM DTT, 0.05% NP40, 20% glycerol, 3 µg yeast tRNA; 5 min on ice, then 10 min at room temperature with RNA; 5% native PAGE, 0.25x TBE
SX17 chimera [2] = biological target: T2, SX17 chimera; experiment: as above
SX28 chimera [3] = biological target: T3, SX28 chimera; experiment: as above
SX35 chimera [4] = biological target: T4, SX35 chimera; experiment: as above
SX64 chimera [5] = biological target: T1, SX64 chimera; experiment: EMSA; apparent Kd, Hill fit; error 95% CI; 20 mM Hepes pH 8.0, 0.1 M KCl, 0.5 mM EDTA, 1 mM DTT, 0.05% NP40, 20% glycerol, 3 µg yeast tRNA; 5 min on ice, then 10 min at room temperature with RNA; 5% native PAGE, 0.25x TBE
SX17 chimera [6] = biological target: T2, SX17 chimera; experiment: as above
SX28 chimera [7] = biological target: T3, SX28 chimera; experiment: as above
SX35 chimera [8] = biological target: T4, SX35 chimera; experiment: as above

Row | Binder | Kd (SX64 chimera [1]) | Kd (SX17 chimera [2]) | Kd (SX28 chimera [3]) | Kd (SX35 chimera [4]) | Kd (SX64 chimera [5]) | Kd (SX17 chimera [6]) | Kd (SX28 chimera [7]) | Kd (SX35 chimera [8])
1 | B1 | 2.3 ± 0.4 µM | 2.4 ± 0.5 µM | 3.8 ± 0.5 µM | 0.9 ± 0.4 µM | – | – | – | –
2 | B2 | – | – | – | – | 180 ± 20 µM | 350 ± 50 µM | 230 ± 50 µM | 230 ± 40 µM
